Data reported in patent US6855515B1, “Autoantigenic fragments, methods and assays” (Merck & Co., Inc., priority 1998, dated 2005).

The molecules below were run against T1, granzyme B (Homo sapiens, UniProt P10144) (assay: Susceptibility of autoantigens to cleavage by purified granzyme B (HeLa lysate immunoblot or immunoprecipitates)). Conditions: in vitro.
T1 construct: Some of these preparations were used for the further purification of granzyme B (Tschopp, 1994); endogenous in cells; host or cells: YT cells (human NK cell line), cytoplasmic granules
T1 sequence (P10144 21-247): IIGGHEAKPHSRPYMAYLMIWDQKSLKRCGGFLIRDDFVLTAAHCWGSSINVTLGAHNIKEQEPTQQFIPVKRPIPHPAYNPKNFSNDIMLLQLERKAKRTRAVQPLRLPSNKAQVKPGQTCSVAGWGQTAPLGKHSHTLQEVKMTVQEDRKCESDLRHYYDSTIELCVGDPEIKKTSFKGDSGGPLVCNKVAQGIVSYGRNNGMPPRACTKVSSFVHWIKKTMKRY
Type: biochemical
Method: To determine whether susceptibility to direct cleavage by granzyme B was an isolated feature of PARP, NuMA and DNA-PKcs shown above, or whether it was a more general feature of autoantigens, a variety of well-defined autoantigens selected from across the spectrum of systemic autoimmune diseases were tested for susceptibility to cleavage by purified granzyume B. The efficiency of cleavage of the substrates by purified granzyme B was also noted (Table 3). Initially, a series of autoantibodies of well-defined specificity were used to immunoblot lysates of HeLa cells that had been incubated in vitro with or without granzyme B. Lysates were pre-treated with iodoacetamide (IAA) to prevent interference by endogenous caspase activity.
To perform these studies, HeLa cells were radiolabeled with [^35S] methionine/cysteine, and proteins were immunoprecipitated using human autoantibodies. Protein A-agarose beads containing washed precipitated proteins were resuspended in buffer supporting the activity of granzyme B, and incubated in the absence or presence of added purified granzyme B. Reaction products were visualized using SDS-PAGE and fluorography. To confirm the validity of this approach, several different autoantigens known to be cleaved by granzyme B, as well as several autoantigens and non-autoantigens that are not cleaved by granzyme B, were tested. Using autoantibodies that both immunoblot and immunprecipitate, the cleavage profiles obtained using granzyme B to cleave molecules in lysates (followed by detection with immunoblotting), and after immunoprecipitation (from [^35S]methionine-labeled HeLa lysate) were compared. Identical results were obtained using these 2 methods for cleaved autoantigens (topoisomerase-1, Mi-2, RNA polymerase II large subunit, Ku-70, PARP, and NOR-90), uncleaved autoantigens (Ku-80, Ro 60k), and control substrates (β-tubulin, vinculin). […] Of note, all these additional autoantigens (with the exception of RNA polymerase I) are targeted in autoimmune myositis. However, two other tRNA synthetases (threonyl tRNA synthetase and glycyl tRNA synthetase) that are also autoantigens in autoimmune myositis, were not cleaved using this approach.

Molecule	susceptibility to cleavage by granzyme B
CENP B: autoantigen (protein) GPKRRQLTFREKSRIIQEVEENPDLRKGEIARRFNIPPSTLSTILKNKRAILASERKYGVASTCRKTNKLSPYDKLEGLLIAWFQQIRAAGLPVKGIILKEKALRIAEELGMDDFTASNGWLDRFRRRHGVVSCSGVARARARNAAPRTPAAPASPAAVPSEGSGGSTTGWRAREEQPPSVAEGYASQDVFSATETSLWYDFLPDQAAGLCGGDGRPRQATQRLSVLLCANADGSEKLPPLVAGKSAKPRAGQAGLPCDYTANSKGGVTTQALAKYLKALDTRMAAESRRVLLLAGRLAAQSLDTSGLRHVQLAFFPPGTVHPLERGVVQQVKGHYRQAMLLKAMAALEGQDPSGLQLGLTEALHFVAAAWQAVEPSDIAACFREAGFGGGPNATITTSLKSEGEEEEEEEEEEEEEEGEGEEEEEEGEEEEEEGGEGEELGEEEEVEEEGDVDSDEEEEEDEESSSEGLEAEDWAQGVVEAGGSFGAYGAQEEAQCPTLHFLEGGEDSDSDSEEEDDEEEDDEDEDDDDDEEDGDEVPVPSFGEAMAYFAMVKRYLTSFPIDDRVQSHILHLEHDLVHVTRKNHARQAGVRGLGHQS	efficiently cleaved
NOR-90: autoantigen (protein, UniProt P17480 1-764, looked up) Nucleolar transcription …: MNGEADCPTDLEMAAPKGQDRWSQEDMLTLLECMKNNLPSNDSSKFKTTESHMDWEKVAFKDFSGDMCKLKWVEISNEVRKFRTLTELILDAQEHVKNPYKGKKLKKHPDFPKKPLTPYFRFFMEKRAKYAKLHPEMSNLDLTKILSKKYKELPEKKKMKYIQDFQREKQEFERNLARFREDHPDLIQNAKKSDIPEKPKTPQQLWYTHEKKVYLKVRPDATTKEVKDSLGKQWSQLSDKKRLKWIHKALEQRKEYEEIMRDYIQKHPELNISEEGITKSTLTKAERQLKDKFDGRPTKPPPNSYSLYCAELMANMKDVPSTERMVLCSQQWKLLSQKEKDAYHKKCDQKKKDYEVELLRFLESLPEEEQQRVLGEEKMLNINKKQATSPASKKPAQEGGKGGSEKPKRPVSAMFIFSEEKRRQLQEERPELSESELTRLLARMWNDLSEKKKAKYKAREAALKAQSERKPGGEREERGKLPESPKRAEEIWQQSVIGDYLARFKNDRVKALKAMEMTWNNMEKKEKLMWIKKAAEDQKRYERELSEMRAPPAATNSSKKMKFQGEPKKPPMNGYQKFSQELLSNGELNHLPLKERMVEIGSRWQRISQSQKEHYKKLAEEQQKQYKVHLDLWVKSLSPQDRAAYKEYISNKRKSMTKLRGPNPKSSRTTLQSKSESEEDDEEDEDDEDEDEEEEDDENGDSSEDGGDSSESSSEDESEDGDENEEDDEDEDDDEDDDEDEDNESEGSSSSSSSSGDSSDSDSN	efficiently cleaved
Histidyl tRNA synthetase (Jo-1): autoantigen targeted in autoimmune myositis (protein) AERAALEELVKLQGERVRGLKQQKASAELIEEEVAKLLKLKAQLGPDESKQKFVLKTPKGTRDYSPRQMAVREKVFDVIIRCFKRHGAEVIDTPVFELKETLMGKYGEDSKLIYDLKDQGGELLSLRYDLTVPFARYLAMNKLTNIKRYHIAKVYRRDNPAMTRGRYREFYQCDFDIAGNFDPMIPDAECLKIMCEILSSLQIGDFLVKVNDRRILDGMFAICGVSDSKFRTICSSVDKLDKVSWEEVKNEMVGEKGLAPEVADRIGDYVQQHGGVSLVEQLLQDPKLSQNKQALEGLGDLKLLFEYLTLFGIDDKISFDLSLARGLDYYTGVIYEAVLLQTPAQAGEEPLGVGSVAAGGRYDGLVGMFDPKGRKVPCVGLSIGVERIFSIVEQRLEALEEKIRTTETQVLVASAQKKLLEERLKLVSELWDAGIKAELLYKKNPKLLNQLQYCEEAGIPLVAIIGEQELKDGVIKLRSVTSREEVDVRREDLVEEIKRRTGQPLCIC	cleaved
La: autoantigen (protein, UniProt P05455 1-408, looked up) Lupus La protein: MAENGDNEKMAALEAKICHQIEYYFGDFNLPRDKFLKEQIKLDEGWVPLEIMIKFNRLNRLTTDFNVIVEALSKSKAELMEISEDKTKIRRSPSKPLPEVTDEYKNDVKNRSVYIKGFPTDATLDDIKEWLEDKGQVLNIQMRRTLHKAFKGSIFVVFDSIESAKKFVETPGQKYKETDLLILFKDDYFAKKNEERKQNKVEAKLRAKQEQEAKQKLEEDAEMKSLEEKIGCLLKFSGDLDDQTCREDLHILFSNHGEIKWIDFVRGAKEGIILFKEKAKEALGKAKDANNGNLQLRNKEVTWEVLEGEVEKEALKKIIEDQQESLNKWKSKGRRFKGKGKGNKAAQPGSGKGKVQFQGKKTKFASDDEHDEHDENGATGPVKRAREETDKEEPASKQQKTENGAGDQ	efficiently cleaved
Fibrilliarin: autoantigen (protein) MKPGFSPRGGGFGGRGGFGDRGGRGGRGGFGGGRGRGGGFRGRGRGGGGGGGGGGGGGRGGGGFHSGGNRGRGRGGKRGNQSGKNVMVEPHRHEGVFICRGKEDALVTKNLVPGESVYGEKRVSISEGDDKIEYRAWNPFRSKLAAAILGGVDQIHIKPGAKVLYLGAASGTTVSHVSDIVGPDGLVYAVEFSHRSGRDLINLAKKRTNIIPVIEDARHPHKYRMLIAMVDVIFADVAQPDQTRIVALNAHTFLRNGGHFVISIKANCIDSTASAEAVFASEVKKMQQENMKPQEQLTLEPYERDHAVVVGVYRPPPKVKN	efficiently cleaved
Isoleucyl tRNA synthetase (O.J.): autoantigen targeted in autoimmune myositis (protein) MLQQVPENINFPAEEEKILEFWTEFNCFQECLKQSKHKPKFTFYDGPPFATGLPHYGHILAGTIKDIVTRYAHQSGFHVDRRFGWDCHGLPVEYEIDKTLGIRGPEDVAKMGITEYNNQCRAIVMRYSAEWKSTVSRLGRWIDFDNDYKTLYPQFMESVWWVFKQLYDKGLVYRGVKVMPFSTACNTPLSNFESHQNYKDVQDPSVFVTFPLEEDETVSLVAWTTTPWTLPSNLAVCVNPEMQYVKIKDVARGRLLILMEARLSALYKLESDYEILERFPGAYLKGKKYRPLFDYFLKCKENGAFTVLVDNYVKEEEGTGVVHQAPYFGAEDYRVCMDFNIIRKDSLPVCPVDASGCFTTEVTDFAGQYVKDADKSIIRTLKEQGRLLVATTFTHSYPFCWRSDTPLIYKAVPSWFVRVENMVDQLLRNNDLCYWVPELVREKRFGNWLKDARDWTISRNRYWGTPIPLWVSDDFEEVVCIGSVAELEELSGAKISDLHRESVDHLTIPSRCGKGSLHRISEVFDCWFESGSMPYAQVHYPFENKREFEDAFPADFIAEGIDQTRGWFYTLLVLATALFGQPPFKNVIVNGLVLASDGQKMSKRKKNYPDPVSIIQKYGADALRLYLINSPVVRAENLRFKEEGVRDVLKDVLLPWYNAYRFLIQNVLRLQKEEEIEFLYNENTVRESPNITDRWILSFMQSLIGFFETEMAAYRLYTVVPRLVKFVDILTNWYVRMNRRRLKGENGMEDCVMALETLFSVLLSLCRLMAPYTPFLTELMYQNLKVLIDPVSVQDKDTLSIHYLMLPRVREELIDKKTESAVSQMQSVIELGRVIRDRKTIPIKYPLKEIVVIHQDPEALKDIKSLEKYIIEELNVRKVTLSTDKNKYGIRLRAEPDHMVLGKRLKGAFKAVMTSIKQLSSEELEQFQKTGTIVVEGHELHDEDIRLMYTFDQATGGTAQFEAHSDAQALVLLDVTPDQSMVDEGMAREVINRIQKLRKKCNLVPTDEITVYYKAKSEGTYLNSVIESHTEFIFTTIKAPLKPYPVSPSDKVLIQEKTQLKGSELEITLTRGSSLPGPACAYVNLNICANGSEQGGVLLLENPKGDNRLDLLKLKSVVTSIFGVKNTELAVFHDETEIQNQTDLLSLSGKTLCVTAGSAPSLINSSSTLLCQYINLQLLNAKPQECLMGTVGTLLLENPLGQNGLTHQGLLYEAAKVFGLRSRKLKLFLNETQTQEITEDIPVKTLNMKTVYVSVLPTTADF	cleaved
